Target: recombinant GST-tagged TgNF3 (Toxoplasma gondii nuclear factor 3) (T. gondii)
Assay: pull-down

purified core histones from HeLa cells (H3, H4, H2A/H2B) (from UniProt P68431 1-136; P62805 1-103; P0C0S8 1-130; P62807 1-126) (complex)
percent of input bound: 25%
